Experimental data: patent US20190015483A1 (CSL BEHRING RECOMBINANT FACILITY, published 2019)

T1: recombinant Factor VIII (CSL627, rVIII-SingleChain) (Homo sapiens (Human), UniProt P00451 20-2351)
T1 construct: also called FVIII
T1 sequence: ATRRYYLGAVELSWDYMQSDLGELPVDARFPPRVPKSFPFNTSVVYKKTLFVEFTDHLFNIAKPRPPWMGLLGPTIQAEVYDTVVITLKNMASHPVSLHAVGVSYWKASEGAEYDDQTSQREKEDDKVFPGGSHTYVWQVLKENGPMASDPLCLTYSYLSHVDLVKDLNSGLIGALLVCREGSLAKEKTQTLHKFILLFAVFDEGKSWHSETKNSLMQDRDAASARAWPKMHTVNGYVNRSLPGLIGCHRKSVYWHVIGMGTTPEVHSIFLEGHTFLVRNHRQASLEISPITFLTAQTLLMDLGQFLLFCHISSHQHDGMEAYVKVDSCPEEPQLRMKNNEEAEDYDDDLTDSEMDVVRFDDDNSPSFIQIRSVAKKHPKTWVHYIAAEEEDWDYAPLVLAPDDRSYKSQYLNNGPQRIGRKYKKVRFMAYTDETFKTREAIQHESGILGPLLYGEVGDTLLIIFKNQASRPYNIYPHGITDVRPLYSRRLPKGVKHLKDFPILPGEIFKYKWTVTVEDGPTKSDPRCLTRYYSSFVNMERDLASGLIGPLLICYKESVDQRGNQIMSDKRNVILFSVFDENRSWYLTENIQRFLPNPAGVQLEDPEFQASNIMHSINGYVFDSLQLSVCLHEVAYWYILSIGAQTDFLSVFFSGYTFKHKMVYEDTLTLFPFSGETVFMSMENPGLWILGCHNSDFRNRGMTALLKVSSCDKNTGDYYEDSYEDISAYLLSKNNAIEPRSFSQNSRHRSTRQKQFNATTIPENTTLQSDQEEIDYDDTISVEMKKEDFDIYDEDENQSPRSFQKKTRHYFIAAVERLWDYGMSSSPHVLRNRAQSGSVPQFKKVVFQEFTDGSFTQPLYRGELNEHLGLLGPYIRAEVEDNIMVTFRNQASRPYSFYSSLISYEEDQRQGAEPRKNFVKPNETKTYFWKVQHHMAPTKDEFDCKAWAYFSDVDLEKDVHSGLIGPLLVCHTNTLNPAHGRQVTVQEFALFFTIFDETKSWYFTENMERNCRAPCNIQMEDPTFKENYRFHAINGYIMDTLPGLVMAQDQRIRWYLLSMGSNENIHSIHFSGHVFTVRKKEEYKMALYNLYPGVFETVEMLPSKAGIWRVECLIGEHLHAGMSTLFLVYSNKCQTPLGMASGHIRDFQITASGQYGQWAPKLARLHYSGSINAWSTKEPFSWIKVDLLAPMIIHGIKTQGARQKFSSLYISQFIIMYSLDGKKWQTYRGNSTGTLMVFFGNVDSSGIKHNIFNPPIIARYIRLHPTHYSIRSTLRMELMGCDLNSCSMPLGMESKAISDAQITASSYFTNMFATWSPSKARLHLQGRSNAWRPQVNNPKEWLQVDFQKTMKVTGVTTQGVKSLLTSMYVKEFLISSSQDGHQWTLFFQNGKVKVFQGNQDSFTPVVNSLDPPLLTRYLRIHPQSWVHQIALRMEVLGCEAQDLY


Target: T1, recombinant Factor VIII (CSL627, …)
Assay: SPR, anti-His capture
Experimental: Binding kinetics were investigated by surface plasmon resonance using a Biacore 4000 biosensor at 37° C. Each mutant was captured from cell culture medium to a density of 40-150 RU on a CM-5 sensor chip pre-immobilised with anti-His antibody (14,000 RU). In an initial screening study, FVIII was injected over the captured mutants for 5 minutes at 1 nM and dissociation monitored for 5 minutes.
All sensorgrams were double referenced by subtraction of signals from a reference spot (containing only immobilised anti His antibody) and from a blank injection. Binding kinetics were determined by fitting the double referenced sensorgrams to a 1:1 kinetic model.

Row | Binder | Kd | koff | kon
1 | Hu-vWF[764-1270]-8His S764P-K773I (other) PLSCRPPMVILVCPADNLRAEGLECTKTCQNYDLECMSMGCVSGCLCPPGMVRHENRCVALERCPCFHQGKEYAPGETVKIGCNTCVCRDRKWNCTDHVCDATCSTIGMAHYLTFDGLKYLFPGECQYVLVQDYCGSNPGTFRILVGNKGCSHPSVKCKKRVTILVEGGEIELFDGEVNVKRPMKDETHFEVVESGRYIILLLGKALSVVWDRHLSISVVLKQTYQEKVCGLCGNFDGIQNNDLTSSNLQVEEDPVDFGNSWKVSSQCADTRKVPLDSSPATCHNNIMKQTMVDSSCRILTSDVFQDCNKLVDPEPYLDVCIYDTCSCESIGDCACFCDTIAAYAHVCAQHGKVVTWRTATLCPQSCEERNLRENGYECEWRYNSCAPACQVTCQHPEPLACPVQCVEGCHAHCPPGKILDELLQTCVDPEDCPVCEVAGRRFASGKKVTLNPSDPEHCQICHCDVVNLTCEACQEPGGLVVPPTDAPVSPTTLYVEDISEPPLHDFHHHHHHHH | 9.43 pM | 0.000169 s⁻¹ | 1.79e+07 M⁻¹ s⁻¹
2 | Hu-vWF[764-1270]-8His S764P-K773M (other) PLSCRPPMVMLVCPADNLRAEGLECTKTCQNYDLECMSMGCVSGCLCPPGMVRHENRCVALERCPCFHQGKEYAPGETVKIGCNTCVCRDRKWNCTDHVCDATCSTIGMAHYLTFDGLKYLFPGECQYVLVQDYCGSNPGTFRILVGNKGCSHPSVKCKKRVTILVEGGEIELFDGEVNVKRPMKDETHFEVVESGRYIILLLGKALSVVWDRHLSISVVLKQTYQEKVCGLCGNFDGIQNNDLTSSNLQVEEDPVDFGNSWKVSSQCADTRKVPLDSSPATCHNNIMKQTMVDSSCRILTSDVFQDCNKLVDPEPYLDVCIYDTCSCESIGDCACFCDTIAAYAHVCAQHGKVVTWRTATLCPQSCEERNLRENGYECEWRYNSCAPACQVTCQHPEPLACPVQCVEGCHAHCPPGKILDELLQTCVDPEDCPVCEVAGRRFASGKKVTLNPSDPEHCQICHCDVVNLTCEACQEPGGLVVPPTDAPVSPTTLYVEDISEPPLHDFHHHHHHHH | 10.8 pM | 0.00017 s⁻¹ | 1.58e+07 M⁻¹ s⁻¹
3 | Hu-vWF[764-1270]-8His S764P-K773R (other) PLSCRPPMVRLVCPADNLRAEGLECTKTCQNYDLECMSMGCVSGCLCPPGMVRHENRCVALERCPCFHQGKEYAPGETVKIGCNTCVCRDRKWNCTDHVCDATCSTIGMAHYLTFDGLKYLFPGECQYVLVQDYCGSNPGTFRILVGNKGCSHPSVKCKKRVTILVEGGEIELFDGEVNVKRPMKDETHFEVVESGRYIILLLGKALSVVWDRHLSISVVLKQTYQEKVCGLCGNFDGIQNNDLTSSNLQVEEDPVDFGNSWKVSSQCADTRKVPLDSSPATCHNNIMKQTMVDSSCRILTSDVFQDCNKLVDPEPYLDVCIYDTCSCESIGDCACFCDTIAAYAHVCAQHGKVVTWRTATLCPQSCEERNLRENGYECEWRYNSCAPACQVTCQHPEPLACPVQCVEGCHAHCPPGKILDELLQTCVDPEDCPVCEVAGRRFASGKKVTLNPSDPEHCQICHCDVVNLTCEACQEPGGLVVPPTDAPVSPTTLYVEDISEPPLHDFHHHHHHHH | 11.6 pM | 7.42e-05 s⁻¹ | 6.39e+06 M⁻¹ s⁻¹
4 | Hu-vWF[764-1270]-8His S764P-K773L (other) PLSCRPPMVLLVCPADNLRAEGLECTKTCQNYDLECMSMGCVSGCLCPPGMVRHENRCVALERCPCFHQGKEYAPGETVKIGCNTCVCRDRKWNCTDHVCDATCSTIGMAHYLTFDGLKYLFPGECQYVLVQDYCGSNPGTFRILVGNKGCSHPSVKCKKRVTILVEGGEIELFDGEVNVKRPMKDETHFEVVESGRYIILLLGKALSVVWDRHLSISVVLKQTYQEKVCGLCGNFDGIQNNDLTSSNLQVEEDPVDFGNSWKVSSQCADTRKVPLDSSPATCHNNIMKQTMVDSSCRILTSDVFQDCNKLVDPEPYLDVCIYDTCSCESIGDCACFCDTIAAYAHVCAQHGKVVTWRTATLCPQSCEERNLRENGYECEWRYNSCAPACQVTCQHPEPLACPVQCVEGCHAHCPPGKILDELLQTCVDPEDCPVCEVAGRRFASGKKVTLNPSDPEHCQICHCDVVNLTCEACQEPGGLVVPPTDAPVSPTTLYVEDISEPPLHDFHHHHHHHH | 1240 pM | 0.000572 s⁻¹ | 460000 M⁻¹ s⁻¹
5 | Hu-vWF[764-1270]-8His S764P-K773S (other) PLSCRPPMVSLVCPADNLRAEGLECTKTCQNYDLECMSMGCVSGCLCPPGMVRHENRCVALERCPCFHQGKEYAPGETVKIGCNTCVCRDRKWNCTDHVCDATCSTIGMAHYLTFDGLKYLFPGECQYVLVQDYCGSNPGTFRILVGNKGCSHPSVKCKKRVTILVEGGEIELFDGEVNVKRPMKDETHFEVVESGRYIILLLGKALSVVWDRHLSISVVLKQTYQEKVCGLCGNFDGIQNNDLTSSNLQVEEDPVDFGNSWKVSSQCADTRKVPLDSSPATCHNNIMKQTMVDSSCRILTSDVFQDCNKLVDPEPYLDVCIYDTCSCESIGDCACFCDTIAAYAHVCAQHGKVVTWRTATLCPQSCEERNLRENGYECEWRYNSCAPACQVTCQHPEPLACPVQCVEGCHAHCPPGKILDELLQTCVDPEDCPVCEVAGRRFASGKKVTLNPSDPEHCQICHCDVVNLTCEACQEPGGLVVPPTDAPVSPTTLYVEDISEPPLHDFHHHHHHHH | 14.2 pM | 0.000306 s⁻¹ | 2.16e+07 M⁻¹ s⁻¹

Now from value to binder:

Row | Kd | koff | kon | Binder
6 | 22.2 pM | 0.000501 s⁻¹ | 2.26e+07 M⁻¹ s⁻¹ | Hu-vWF[764-1270]-8His S764P-K773P (other) PLSCRPPMVPLVCPADNLRAEGLECTKTCQNYDLECMSMGCVSGCLCPPGMVRHENRCVALERCPCFHQGKEYAPGETVKIGCNTCVCRDRKWNCTDHVCDATCSTIGMAHYLTFDGLKYLFPGECQYVLVQDYCGSNPGTFRILVGNKGCSHPSVKCKKRVTILVEGGEIELFDGEVNVKRPMKDETHFEVVESGRYIILLLGKALSVVWDRHLSISVVLKQTYQEKVCGLCGNFDGIQNNDLTSSNLQVEEDPVDFGNSWKVSSQCADTRKVPLDSSPATCHNNIMKQTMVDSSCRILTSDVFQDCNKLVDPEPYLDVCIYDTCSCESIGDCACFCDTIAAYAHVCAQHGKVVTWRTATLCPQSCEERNLRENGYECEWRYNSCAPACQVTCQHPEPLACPVQCVEGCHAHCPPGKILDELLQTCVDPEDCPVCEVAGRRFASGKKVTLNPSDPEHCQICHCDVVNLTCEACQEPGGLVVPPTDAPVSPTTLYVEDISEPPLHDFHHHHHHHH
7 | 63.1 pM | 0.000347 s⁻¹ | 5.5e+06 M⁻¹ s⁻¹ | Hu-vWF[764-1270]-8His S764P-K773N (other) PLSCRPPMVNLVCPADNLRAEGLECTKTCQNYDLECMSMGCVSGCLCPPGMVRHENRCVALERCPCFHQGKEYAPGETVKIGCNTCVCRDRKWNCTDHVCDATCSTIGMAHYLTFDGLKYLFPGECQYVLVQDYCGSNPGTFRILVGNKGCSHPSVKCKKRVTILVEGGEIELFDGEVNVKRPMKDETHFEVVESGRYIILLLGKALSVVWDRHLSISVVLKQTYQEKVCGLCGNFDGIQNNDLTSSNLQVEEDPVDFGNSWKVSSQCADTRKVPLDSSPATCHNNIMKQTMVDSSCRILTSDVFQDCNKLVDPEPYLDVCIYDTCSCESIGDCACFCDTIAAYAHVCAQHGKVVTWRTATLCPQSCEERNLRENGYECEWRYNSCAPACQVTCQHPEPLACPVQCVEGCHAHCPPGKILDELLQTCVDPEDCPVCEVAGRRFASGKKVTLNPSDPEHCQICHCDVVNLTCEACQEPGGLVVPPTDAPVSPTTLYVEDISEPPLHDFHHHHHHHH
8 | 28.8 pM | 0.000128 s⁻¹ | 4.44e+06 M⁻¹ s⁻¹ | Hu-vWF[764-1270]-8His S764P-K773Q (other) PLSCRPPMVQLVCPADNLRAEGLECTKTCQNYDLECMSMGCVSGCLCPPGMVRHENRCVALERCPCFHQGKEYAPGETVKIGCNTCVCRDRKWNCTDHVCDATCSTIGMAHYLTFDGLKYLFPGECQYVLVQDYCGSNPGTFRILVGNKGCSHPSVKCKKRVTILVEGGEIELFDGEVNVKRPMKDETHFEVVESGRYIILLLGKALSVVWDRHLSISVVLKQTYQEKVCGLCGNFDGIQNNDLTSSNLQVEEDPVDFGNSWKVSSQCADTRKVPLDSSPATCHNNIMKQTMVDSSCRILTSDVFQDCNKLVDPEPYLDVCIYDTCSCESIGDCACFCDTIAAYAHVCAQHGKVVTWRTATLCPQSCEERNLRENGYECEWRYNSCAPACQVTCQHPEPLACPVQCVEGCHAHCPPGKILDELLQTCVDPEDCPVCEVAGRRFASGKKVTLNPSDPEHCQICHCDVVNLTCEACQEPGGLVVPPTDAPVSPTTLYVEDISEPPLHDFHHHHHHHH
